In article doi:10.1101/2022.07.31.502239 one finds stoichiometry N data, which are given here for one molecule.

In this test the target is T1, mmLRRC8A with C-terminal EGFP and HA-tag (Mus musculus), Q80WG5.
T1 chain: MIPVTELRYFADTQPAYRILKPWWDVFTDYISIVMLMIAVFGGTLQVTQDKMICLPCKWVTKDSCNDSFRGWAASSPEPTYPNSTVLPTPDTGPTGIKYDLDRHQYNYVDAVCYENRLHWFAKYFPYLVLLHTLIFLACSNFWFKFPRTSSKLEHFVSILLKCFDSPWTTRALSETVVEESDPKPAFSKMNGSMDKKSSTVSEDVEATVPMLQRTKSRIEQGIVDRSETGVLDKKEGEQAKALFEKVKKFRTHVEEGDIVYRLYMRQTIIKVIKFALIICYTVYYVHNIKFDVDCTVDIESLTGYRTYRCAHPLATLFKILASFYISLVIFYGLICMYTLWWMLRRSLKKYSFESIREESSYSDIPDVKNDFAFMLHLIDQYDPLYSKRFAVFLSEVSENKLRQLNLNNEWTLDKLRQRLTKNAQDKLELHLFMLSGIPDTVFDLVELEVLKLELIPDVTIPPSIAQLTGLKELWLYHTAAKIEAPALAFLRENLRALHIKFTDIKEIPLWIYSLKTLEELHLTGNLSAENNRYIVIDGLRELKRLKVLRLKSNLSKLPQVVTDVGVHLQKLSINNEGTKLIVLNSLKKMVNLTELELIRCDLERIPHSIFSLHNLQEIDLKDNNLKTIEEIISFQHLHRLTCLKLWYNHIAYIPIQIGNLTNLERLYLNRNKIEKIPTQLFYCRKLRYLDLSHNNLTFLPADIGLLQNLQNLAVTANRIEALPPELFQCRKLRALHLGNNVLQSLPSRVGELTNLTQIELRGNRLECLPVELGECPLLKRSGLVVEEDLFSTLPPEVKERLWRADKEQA
The test is described as follows: single molecule pulldown with stepwise photobleaching subunit counting. The conditions noted are these: remark: other sources report otherwise.

B1: mmLRRC8A with C-terminal EGFP and HA-tag, Q80WG5 1-810 (natural protein)
chain: T1 chain
As a reminder, the stoichiometry N is the number of molecules, sites or subunits per partner or assembly. On to B1, for which the stoichiometry N turned out to be 6.
